Laboratory results published in US20120034160A1 (AbbVie / Abbott, published 2012).

Target: T1, Recombinant Human IL-1β (human, UniProt P01584 117-269)
T1 construct: bought reagent; also called IL-1B
Experiment: Biacore SPR; N-terminal VD
Outline: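 Rate constants fitted globally to a 1:1 Langmuir model from antigen series of 10−200 nM flowed at 25 μl/min over captured antibody or DVD-Ig (anti-mouse IgG Fcγ capture, ligand at 25 μg/ml).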

B1: DVD1266 (bispecific antibody, human IgG1, kappa)
heavy: not shown
light: DTQVTQSPSSLSASVGDRVTITCITSTDIDVDMNWYQQKPGKPPKLLISQGNTLRPGVPSRFSSSGSGTDFTFTISSLQPEDFATYYCLQSDNLPLTFGQGTKLEIKRTVAAPDIQMTQSPSSLSASVGDRVTITCRASSGIISYIDWFQQKPGKAPKRLIYATFDLASGVPSRFSGSGSGTDYTLTISSLQPEDFATYYCRQVGSYPETFGQGTKLEIKRTVAAPSVFIFPPSDEQLKSGTASVVCLLNNFYPREAKVQWKVDNALQSGNSQESVTEQDSKDSTYSLSSTLTLSKADYEKHKVYACEVTHQGLSSPVTKSFNRGEC
notes: DVD-Ig, outer AB270, inner AB273, linker set 1; V1 wt hIgG1, V2 kappa; also called DVD1266H; DVD1266L
Kd: 0.077 nM | koff: 0.00046 s⁻¹ | kon: 6e+06 M⁻¹ s⁻¹

B2: DVD1270 (bispecific antibody, human IgG1, kappa)
heavy: not shown
light: ETTVTQSPSSLSASVGDRVTITCITSTDIDVDMNWYQQKPGKPPKLLISQGNTLRPGVPSRFSSSGSGTDFTFTISSLQPEDFATYYCLQSDNLPLTFGQGTKLEIKRTVAAPDIQMTQSPSSLSASVGDRVTITCRASSGIISYIDWFQQKPGKAPKRLIYATFDLASGVPSRFSGSGSGTDYTLTISSLQPEDFATYYCRQVGSYPETFGQGTKLEIKRTVAAPSVFIFPPSDEQLKSGTASVVCLLNNFYPREAKVQWKVDNALQSGNSQESVTEQDSKDSTYSLSSTLTLSKADYEKHKVYACEVTHQGLSSPVTKSFNRGEC
notes: DVD-Ig, outer AB272, inner AB273, linker set 1; V1 wt hIgG1, V2 kappa; also called DVD1270H; DVD1270L
Kd: 0.1 nM | koff: 0.00054 s⁻¹ | kon: 5.3e+06 M⁻¹ s⁻¹

B3: DVD1272 (bispecific antibody, human IgG1, kappa)
heavy: not shown
light: DIQMTQSPSSLSASVGDRVTITCRASGNIHNYLTWYQQTPGKAPKLLIYNAKTLADGVPSRFSGSGSGTDYTFTISSLQPEDIATYYCQHFWSIPYTFGQGTKLQITRTVAAPEIVLTQSPDFQSVTPKEKVTITCRASQDIGSELHWYQQKPDQPPKLLIKYASHSTSGVPSRFSGSGSGTDFTLTINGLEAEDAGTYYCHQTDSLPYTFGPGTKVDIKRTVAAPSVFIFPPSDEQLKSGTASVVCLLNNFYPREAKVQWKVDNALQSGNSQESVTEQDSKDSTYSLSSTLTLSKADYEKHKVYACEVTHQGLSSPVTKSFNRGEC
notes: V1 wt hIgG1, V2 kappa; also called DVD1272H; DVD1272L
Kd: 0.03 nM | koff: 4.5e-05 s⁻¹ | kon: 1.5e+06 M⁻¹ s⁻¹

B4: DVD1274 (bispecific antibody, human IgG1, kappa)
heavy: not shown
light: DIQMTQSPSSLSASVGDRVTITCRASGNIHNYLTWYQQTPGKAPKLLIYNAKTLADGVPSRFSGSGSGTDYTFTISSLQPEDIATYYCQHFWSIPYTFGQGTKLQITRTVAAPEIVLTQSPDFQSVTPKEKVTITCRASQDIGSELHWYQQKPDQPPKLLIKYASHSTSGVPSRFSGSGSGTDFTLTINGLEAEDAGTYYCHQTDSLPYTFGPGTKVDIKRTVAAPSVFIFPPSDEQLKSGTASVVCLLNNFYPREAKVQWKVDNALQSGNSQESVTEQDSKDSTYSLSSTLTLSKADYEKHKVYACEVTHQGLSSPVTKSFNRGEC
notes: V1 wt hIgG1, V2 kappa; also called DVD1274H; DVD1274L
Kd: 0.031 nM | koff: 4e-05 s⁻¹ | kon: 1.3e+06 M⁻¹ s⁻¹

B5: DVD1276 (bispecific antibody, human IgG1, kappa)
heavy: not shown
light: DTQVTQSPSSLSASVGDRVTITCITSTDIDVDMNWYQQKPGKPPKLLISQGNTLRPGVPSRFSSSGSGTDFTFTISSLQPEDFATYYCLQSDNLPLTFGQGTKLEIKRTVAAPEIVLTQSPDFQSVTPKEKVTITCRASQDIGSELHWYQQKPDQPPKLLIKYASHSTSGVPSRFSGSGSGTDFTLTINGLEAEDAGTYYCHQTDSLPYTFGPGTKVDIKRTVAAPSVFIFPPSDEQLKSGTASVVCLLNNFYPREAKVQWKVDNALQSGNSQESVTEQDSKDSTYSLSSTLTLSKADYEKHKVYACEVTHQGLSSPVTKSFNRGEC
notes: DVD-Ig, outer AB270, inner AB274, linker set 1; V1 wt hIgG1, V2 kappa; also called DVD1276H; DVD1276L
Kd: 0.082 nM | koff: 0.00045 s⁻¹ | kon: 5.6e+06 M⁻¹ s⁻¹

B6: DVD1278 (bispecific antibody, human IgG1, kappa)
heavy: not shown
light: DTVVTQSPAFLSVTPGEKVTITCITSTDIDVDMNWYQQKPDQPPKLLISQGNTLRPGVPSRFSSSGSGTDFTFTISSLEAEDAATYYCLQSDNLPLTFGQGTKLEIKRTVAAPEIVLTQSPDFQSVTPKEKVTITCRASQDIGSELHWYQQKPDQPPKLLIKYASHSTSGVPSRFSGSGSGTDFTLTINGLEAEDAGTYYCHQTDSLPYTFGPGTKVDIKRTVAAPSVFIFPPSDEQLKSGTASVVCLLNNFYPREAKVQWKVDNALQSGNSQESVTEQDSKDSTYSLSSTLTLSKADYEKHKVYACEVTHQGLSSPVTKSFNRGEC
notes: DVD-Ig, outer AB271, inner AB274, linker set 1; V1 wt hIgG1, V2 kappa; also called DVD1278H; DVD1278L
Kd: 0.069 nM | koff: 0.00047 s⁻¹ | kon: 6.9e+06 M⁻¹ s⁻¹

B7: DVD1280 (bispecific antibody, human IgG1, kappa)
heavy: not shown
light: ETTVTQSPSSLSASVGDRVTITCITSTDIDVDMNWYQQKPGKPPKLLISQGNTLRPGVPSRFSSSGSGTDFTFTISSLQPEDFATYYCLQSDNLPLTFGQGTKLEIKRTVAAPEIVLTQSPDFQSVTPKEKVTITCRASQDIGSELHWYQQKPDQPPKLLIKYASHSTSGVPSRFSGSGSGTDFTLTINGLEAEDAGTYYCHQTDSLPYTFGPGTKVDIKRTVAAPSVFIFPPSDEQLKSGTASVVCLLNNFYPREAKVQWKVDNALQSGNSQESVTEQDSKDSTYSLSSTLTLSKADYEKHKVYACEVTHQGLSSPVTKSFNRGEC
notes: DVD-Ig, outer AB272, inner AB274, linker set 1; V1 wt hIgG1, V2 kappa; also called DVD1280H; DVD1280L
Kd: 0.08 nM | koff: 0.00063 s⁻¹ | kon: 7.9e+06 M⁻¹ s⁻¹
